Measured values reported in PMC8849478, “Scalable manufacturing platform for the production of methemoglobin as a non-oxygen carrying control material in studies of cell-free hemoglobin solutions” (PLoS ONE, 2022).

B1: bovine hemoglobin (complex)
chain 1: not shown
chain 2: not shown
notes: hemoglobin alpha chain, bovine, from whole bovine blood; hemoglobin beta chain, bovine, from whole bovine blood; alpha2beta2 tetramer with ferrous heme (HbFe2+); in equilibrium with alpha-beta dimers; also called bHb; unmodified bHb; source: purified from bovine red blood cells (lysis, tangential flow filtration); copies: 2 + 2
B2: bovine methemoglobin (complex)
chain 1: not shown
chain 2: not shown
notes: hemoglobin alpha chain, bovine, from whole bovine blood; hemoglobin beta chain, bovine, from whole bovine blood; same chains as m1; the heme iron is oxidised to the ferric state (HbFe3+); purity 99.7 ± 0.2%; also called metbHb; bovine metHb; copies: 2 + 2

Molecular target: the molecule itself
Assay: SEC; tetramer to dimers; SEC-HPLC of samples at 1.25, 2.5, 5, 10 and 20 μM (heme basis) after incubation in 0.1 M PBS pH 7.4 at 4°C for one week; fraction of tetramers by deconvolution, Kd from the intercept of the linearised plot (Eq 3)

| Protein | Kd [nM] |
| --- | --- |
| B1 | 500 |
| B2 | 550 |
